Measured values published in US10704026B2, “Ex vivo culture, proliferation and expansion of intestinal epithelium” (The Board of Trustees of the Leland Stanford Junior …, priority 2008, dated 2020).
Entries after “also recorded” stand apart in the source; their conditions may differ.

Columns and labels:
intestinal explants = experiment: Growth of intestinal explant (sphere) cultures under Wnt modulation; format: cell-based, mouse; details: for explant growth: intestinal explant culture
Text: Small intestine or colon of C57Bl/6J mice is procured under sterile conditions, minced and mixed with type I collagen gel. Subsequently, these explant containing gels are poured onto transwell cell culture inserts with a collagen gel layer. Transwell cell culture inserts are available commercially from a number if resources e.g. Corning, Signaaldrich. These cell culture inserts are placed into secondary outer dishes containing HAMs F-12 with 20% FCS. Proliferation and histology of the explant is depicted in FIG. 4A-4D. Electron micrographs of the intestinal explants in FIG. 5A-5E reveal that the ultrastructure of the intestinal epithelium is preserved.
Before preparing the tissue, an inner container with a gel as bottom layer was made. The procedure described herein used Cellmatrix type I-A (Nitta Gelatin Inc.) e.g. collagen gel. The inner dish has permeable membrane bottom. Millicell culture plate inserts (Millicell-CM, Millipore Co.) or Falcon cell culture inserts (BD Co.) was used as the inner dish. 1 ml of collagen gel solution was poured into a 30-mm diameter inner dish in combination with 60 mm diameter outer dish and 2 ml of culture media. 0.3 ml collagen gel solution was poured into 10-mm diameter inner dish in combination with a 24-well outer dish and 0.5 ml of culture media.
Small or large intestine was removed from mouse (fetus, neonate, juvenile, or adult) aseptically. The removed tissue was immediately immersed in ice-cold PBS or other culture media/tissue preservative solution such as Ham's F12, MEM, etc. The small intestine or colon are opened lengthwise and washed in ice-cold PBS to remove all luminal contents. The washed tissue was minced with scissors to a size less than about 0.1 mm^3. The minced tissue was mixed in ice-cold collagen gel solution and poured onto the prepared inner dish. The inner dish was placed in an outer dish. The gel was solidified at 37° C. for 30 min. After solidification of the gel, culture media was poured into outer dish. Ham's F12 supplemented with 20% fetal calf serum and 50 μg/ml gentamicin was used as culture medium. The culture can be sustained for over a year at 37° C. in a humidified atmosphere of 5% CO2 in air. Medium was changed about every 7 days.
Three-Dimensional Explant Culture System. The mouse small and large intestine (optimally postnatal days 0-2) was opened lengthwise and washed in PBS to remove all luminal contents. A 1 cm segment was minced immediately and extensively on ice with iris scissors. The minced tissues were embedded in a three-dimensional collagen gel using a double-dish culture system. A 1 ml collagen gel solution (Nitta Gelatin Co.) was poured into a 30-mm dish (Millicell-CM, Millipore Co.), the inner dish, with a nitrocellulose bottom to form an acellular layer. Next, a 1 ml collagen gel solution containing a total of 0.1 g minced tissues was placed on the acellular layer in the dish. This inner dish was placed into a 90-mm outer dish containing 10 ml Ham's F12 supplemented with 20% FCS and 50 μg/ml gentamicin. The culture assembly was carried out for 7-365 days at 37 C in a humidified atmosphere of 5% CO2 in air, and the medium was changed every 7 days. Where appropriate, murine RSpo1-Fc, Dkk1 or DBZ (Calbiochem) were included in the outer dish medium at 500 ng/ml, 0.5-50 μg/ml and 10 μM respectively with change of medium every 1-2 days.
This culture system maintains the cultured cells embedded in the collagen gel under an air-liquid interface environment. Before preparing the tissue, an inner dish with collagen gel bottom layer should be made. The following procedure is done using Cellmatrix type I-A (Nitta Gelatin Inc.) as a premixed type I collagen gel, however, other products are able to use as an extracellular matrix, such as matrigel. The inner dish should have permeable and/or pored membrane bottom, such as a cell culture insert. […]

[1] = system: intestinal epithelial proliferation; details: cited from earlier work

Row | Molecule | effect on epithelial layer of pre-established spheres (intestinal explants; d28 pre-established small or large intestine spheres, treated additional 5d) | explant growth (intestinal explants) | long-term regrowth after transient treatment (intestinal explants; jejunal explants, 50 μg/ml for 7 days, then 35d without Dkk1) | growth when added to culture media at the time of plating (intestinal explants; recombinant protein at plating) | intestinal proliferation in vivo [1] | explant growth (intestinal explants; listed as R-Spondin1)
1 | Dkk1: Wnt inhibitor; murine Dkk1 bearing N-terminal HA-tag and C-terminal FLAG and 6×His tags (protein, UniProt O54908 32-272, looked up, N-terminal HA tag, C-terminal FLAG and 6xHis tags, murine Dkk1 bearing N-terminal HA-tag and C-terminal FLAG and 6×His tags) Dickkopf-related protein 1: TLNSVLINSNAIKNLPPPLGGAGGQPGSAVSVAPGVLYEGGNKYQTLDNYQPYPCAEDEECGSDEYCSSPSRGAAGVGGVQICLACRKRRKRCMRHAMCCPGNYCKNGICMPSDHSHFPRGEIEESIIENLGNDHNAAAGDGYPRRTTLTSKIYHTKGQEGSVCLRSSDCAAGLCCARHFWSKICKPVLKEGQVCTKHKRKGSHGLEIFQRCYCGEGLACRIQKDHHQASNSSRLHTCQRH | rapid degeneration of the epithelial layer | inhibited; also recorded: strong inhibition of explant growth | lack of long-term repopulation; also recorded: sufficient to ablate culture growth; also recorded: No growth of intestinal spheres was observed | dose-dependent growth inhibition | rapid cessation of intestinal epithelial proliferation and crypt loss | –
2 | RSpo1: secreted glycoprotein, Wnt agonist, Genbank Accession NP_001033722 (protein, UniProt Q2MKA7 21-263, looked up) R-spondin-1: SRGIKGKRQRRISAEGSQACAKGCELCSEVNGCLKCSPKLFILLERNDIRQVGVCLPSCPPGYFDARNPDMNKCIKCKIEHCEACFSHNFCTKCKEGLYLHKGRCYPACPEGSSAANGTMECSSPAQCEMSEWSPWGPCSKKQQLCGFRRGSEERTRRVLHAPVGDHAACSDTKETRRCTVRRVPCPEGQKRRKGGQGRRENANRNLARKESKEAGAGSRRRKGQQQQQQQGTVGPLTSAGPA | – | stimulation; also recorded: markedly stimulated; also recorded: increased growth | – | – | strongly augments intestinal proliferation in vivo; also recorded: strongly induce intestinal proliferation in vivo | promoted
